Here are results for two molecules from patent US20170174776A1 (Hoffmann-La Roche, published 2017).

For assay [1], the target named is T1, fusion protein of the human transferrin receptor extracellular domain linked to human IgG1 Fc (human, UniProt P02786 89-760).
T1 construct: extracellular domain; Bought, R&D Systems #2474-TR-050; also called human TfR; not shown: human IgG1 Fc
In words: ELISA, coated human TfR ECD-Fc, pH 5.5. As for the experimental part:
(§1) A fusion protein of the human transferrin receptor extracellular domain linked to human IgG1 Fc (R&D Systems, Wiesbaden, Germany, #2474-TR-050) or the extracellular domain of the mouse transferrin receptor (SinoBiological, Beijing, China, #50741-M07H) or of the human insulin receptor (R&D Systems, Wiesbaden, Germany, #1544-IR/CF) were coated to a 96-well plate by incubating 50 μl of a solution of 1 μg/ml in PBS for 1 h at RT. […] After four further washes with PBS/0.1% (w/v) TWEEN 20, bound antibodies were detected using HRP-coupled secondary antibodies (Dianova, Hamburg, Germany, #109-036-097 or GE Healthcare, Freiburg, Germany, #NA9310V)(30 min., RT) and 50 μl of TMB (10 min., RT) substrate. Color development was stopped by addition of 50 μl of 1 N hydrochloric acid (HCl) and absorbance measured at 450 nm in a plate reader.
In general terms: An ELISA detects its analyte on a solid surface through an enzyme-linked reagent.

Assay [2] concerns the target T1, fusion protein of the human transferrin …. In words: ELISA, coated human TfR ECD-Fc, pH 5.5 against pH 7.4. The method, then: as §1
Assay [3] has the same target. The experiment in a line: ELISA, coated human TfR ECD-Fc, pH 7.4. As for the experimental part: as §1
In assay [4] the target is T2, extracellular domain of the mouse transferrin receptor (mouse, UniProt Q62351 89-763).
T2 construct: extracellular domain; Bought, SinoBiological #50741-M07H; also called mouse TfR
T2 sequence (Q62351 89-763): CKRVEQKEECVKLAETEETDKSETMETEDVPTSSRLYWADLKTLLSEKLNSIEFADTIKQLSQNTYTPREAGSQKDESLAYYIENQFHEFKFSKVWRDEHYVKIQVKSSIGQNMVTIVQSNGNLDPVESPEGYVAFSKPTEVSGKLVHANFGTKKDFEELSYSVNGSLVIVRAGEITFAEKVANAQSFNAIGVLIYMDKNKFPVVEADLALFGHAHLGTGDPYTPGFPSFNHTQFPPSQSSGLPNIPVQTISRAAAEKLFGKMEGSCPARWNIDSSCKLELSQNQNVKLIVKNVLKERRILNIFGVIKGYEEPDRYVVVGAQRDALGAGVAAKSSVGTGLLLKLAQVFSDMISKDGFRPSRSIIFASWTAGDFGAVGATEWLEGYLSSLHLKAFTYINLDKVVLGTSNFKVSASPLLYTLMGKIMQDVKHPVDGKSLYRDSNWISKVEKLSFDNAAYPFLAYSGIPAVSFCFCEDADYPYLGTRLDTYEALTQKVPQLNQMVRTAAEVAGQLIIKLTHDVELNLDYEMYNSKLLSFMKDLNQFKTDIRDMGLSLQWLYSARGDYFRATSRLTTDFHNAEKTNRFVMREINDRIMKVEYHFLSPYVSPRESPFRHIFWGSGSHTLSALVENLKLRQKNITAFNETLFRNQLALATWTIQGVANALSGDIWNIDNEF
In words: ELISA, coated mouse TfR ECD, pH 5.5 against pH 7.4.

Assay [5] addresses T2, extracellular domain of the mouse …. The experiment in a line: ELISA, coated mouse TfR ECD, pH 7.4.
The target is the same in assay [6]. In words: ELISA, coated mouse TfR ECD, pH 5.5.

T1 sequence (P02786 89-760): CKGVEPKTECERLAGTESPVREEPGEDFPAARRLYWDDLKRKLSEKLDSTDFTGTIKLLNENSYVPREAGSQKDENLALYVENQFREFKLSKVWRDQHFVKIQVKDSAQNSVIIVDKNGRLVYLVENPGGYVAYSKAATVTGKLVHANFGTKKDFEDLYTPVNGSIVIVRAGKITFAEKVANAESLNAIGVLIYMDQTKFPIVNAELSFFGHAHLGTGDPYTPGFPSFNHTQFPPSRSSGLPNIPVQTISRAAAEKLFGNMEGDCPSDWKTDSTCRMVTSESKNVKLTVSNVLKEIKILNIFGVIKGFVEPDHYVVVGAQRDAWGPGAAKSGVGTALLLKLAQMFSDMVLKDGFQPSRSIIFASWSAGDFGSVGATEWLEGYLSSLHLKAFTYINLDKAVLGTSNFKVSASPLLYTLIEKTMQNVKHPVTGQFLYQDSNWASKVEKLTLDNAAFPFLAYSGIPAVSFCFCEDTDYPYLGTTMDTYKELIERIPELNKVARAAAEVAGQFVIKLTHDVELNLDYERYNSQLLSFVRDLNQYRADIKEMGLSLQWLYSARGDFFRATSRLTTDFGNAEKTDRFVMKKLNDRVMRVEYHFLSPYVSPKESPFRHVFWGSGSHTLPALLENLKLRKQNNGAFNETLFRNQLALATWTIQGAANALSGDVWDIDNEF

B1: mAb 128.1 (mouse anti-human transferrin-receptor antibody 128.1 variable regions with human IgG1 heavy and light chain constant regions) (antibody, V domains shown)
VH: EVQLQQSGPELVKPGASMKISCKASGYSFTGYTMNWVKQSHGENLEWIGRINPHNGGTDYNQKFKDKAPLTVDKSSNTAYMELLSLTSEDSAVYYCARGYYYYSLDYWGQGTSVTVSS
VL: QIVLTQSPAIMSASPGEKVTMTCSASSSIDYIHWYQQKSGTSPKRWIYDTSKLASGVPARFSGSGSGTSYSLTISSMEPEDAATYYCHQRNSYPWTFGGGTRLEIR
On to B1, for which the figures for the EC50 in assay [1] and in assay [3] were 0.0098 µg/mL and 0.0078 µg/mL, respectively. Also, the “ratio EC50 pH 5.5/EC50 pH 7.4” value in assay [2] was determined as 1.3.

B2: mAb 8D3 (rat anti-mouse transferrin-receptor antibody 8D3 variable regions with human IgG1 heavy and light chain constant regions) (antibody, V domains shown)
VH: EVQLVESGGGLVQPGNSLTLSCVASGFTFSNYGMHWIRQAPKKGLEWIAMIYYDSSKMNYADTVKGRFTISRDNSKNTLYLEMNSLRSEDTAMYYCAVPTSHYVVDVWGQGVSVTVSS
VL: DIQMTQSPASLSASLEEIVTITCQASQDIGNWLAWYQQKPGKSPQLLIYGATSLADGVPSRFSGSRSGTQFSLKISRVQVEDIGIYYCLQAYNTPWTFGGGTKLELK
As to B2, the “ratio EC50 pH 5.5/EC50 pH 7.4” value in assay [4] stood at 1.1. The EC50 (usually the concentration that produces a half-maximal response) in assay [5] was 0.0511 µg/mL; in assay [6], 0.0549 µg/mL.
